Data from the supplement of paper PMC10567573.

B1: KRT13 (parent)
chain: TPGIDLTRVLAEMREQYEAMAERN

Variants of: B1
Assay: protein stability index of a GFP-peptide fusion (GPS, HEK-293T) (PSI 1-6); higher = more stable
Conditions: c terminus: a fixed tail appended
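Note: lentivirally expressed fusions sorted by FACS into six bins by GFP to DsRed ratio, PSI derived from sequencing read proportions per bin multiplied by bin number.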

| Variant | protein stability index |
| --- | --- |
| TPGIDLTRRLAEMREQYEAMAERN [V9R] | 4.56 |
| TPGIDLTRILAEMREQYEAMAERN [V9I] | 3.06 |
| TPGIDLTRHLAEMREQYEAMAERN [V9H] | 4.47 |
| TPGIDLTRPLAEMREQYEAMAERN [V9P] | 4.49 |
| TPGIDLTRDLAEMREQYEAMAERN [V9D] | 4.54 |
| TPGIDLTRQLAEMREQYEAMAERN [V9Q] | 4.41 |
| TPGIDLTRTLAEMREQYEAMAERN [V9T] | 3.85 |
| TPGIDLTRLLAEMREQYEAMAERN [V9L] | 2.25 |
| TPGIDLTRSLAEMREQYEAMAERN [V9S] | 3.41 |
| TPGIDLTRYLAEMREQYEAMAERN [V9Y] | 3.01 |
| TPGIDLTRMLAEMREQYEAMAERN [V9M] | 3.94 |
| TPGIDLTRNLAEMREQYEAMAERN [V9N] | 4.86 |
| TPGIDLTRKLAEMREQYEAMAERN [V9K] | 4.34 |
| TPGIDLTRCLAEMREQYEAMAERN [V9C] | 4.47 |
| TPGIDLTRELAEMREQYEAMAERN [V9E] | 4.71 |
| TPGIDLTRVLAMMREQYEAMAERN [E12M] | 2.96 |
| TPGIDLTRVLATMREQYEAMAERN [E12T] | 4.09 |
| TPGIDLTRVLAIMREQYEAMAERN [E12I] | 2.72 |
| TPGIDLTRVLARMREQYEAMAERN [E12R] | 1.05 |
| TPGIDLTRVLAKMREQYEAMAERN [E12K] | 2.23 |
| TPGIDLTRVLAHMREQYEAMAERN [E12H] | 3.08 |
| TPGIDLTRVLAAMREQYEAMAERN [E12A] | 3.15 |
| TPGIDLTRVLACMREQYEAMAERN [E12C] | 2.66 |
| TPGIDLTRVLAQMREQYEAMAERN [E12Q] | 4.76 |

| Variant | protein stability index |
| --- | --- |
| TPGIDLTRVLANMREQYEAMAERN [E12N] | 3.87 |
| TPGIDLTRVLAFMREQYEAMAERN [E12F] | 3.42 |
| TPGIDLTRVLAYMREQYEAMAERN [E12Y] | 3.37 |
| TPGIDLTRVLAWMREQYEAMAERN [E12W] | 3.06 |
| TPGIDLTRVLAPMREQYEAMAERN [E12P] | 4.36 |
| TPGIDLTRVLPEMREQYEAMAERN [A11P] | 4.65 |
| TPGIDLTRVLTEMREQYEAMAERN [A11T] | 3.88 |
| TPGIDLTRVLDEMREQYEAMAERN [A11D] | 4.01 |
| TPGIDLTRVLMEMREQYEAMAERN [A11M] | 2.79 |
| TPGIDLTRVLNEMREQYEAMAERN [A11N] | 3.77 |
| TPGIDLTRVLYEMREQYEAMAERN [A11Y] | 3.74 |
| TPGIDLTRVLIEMREQYEAMAERN [A11I] | 3.51 |
| TPGIDLTRVLQEMREQYEAMAERN [A11Q] | 2.85 |
| TPGIDLTRVLHEMREQYEAMAERN [A11H] | 3.95 |
| TPGIDLTRVLSEMREQYEAMAERN [A11S] | 4.61 |
| TPGIDLTRVLFEMREQYEAMAERN [A11F] | 3.7 |
| TPGIDLTRVLKEMREQYEAMAERN [A11K] | 4.23 |
| TPGIDLTRVLVEMREQYEAMAERN [A11V] | 3.79 |
| TPGIDLTRVLLEMREQYEAMAERN [A11L] | 3.51 |
| TPGIDLTRVLAEMEEQYEAMAERN [R14E] | 4.28 |
| TPGIDLTRVLAEMHEQYEAMAERN [R14H] | 3.61 |
| TPGIDLTRVLAEMCEQYEAMAERN [R14C] | 3.04 |
| TPGIDLTRVLAEMDEQYEAMAERN [R14D] | 5.07 |
| TPGIDLTRVLAEMAEQYEAMAERN [R14A] | 2.08 |

| Variant | protein stability index |
| --- | --- |
| TPGIDLTRVLAEMFEQYEAMAERN [R14F] | 3.65 |
| TPGIDLTRVKAEMREQYEAMAERN [L10K] | 4.14 |
| TPGIDLTRVSAEMREQYEAMAERN [L10S] | 4.87 |
| TPGIDLTRVFAEMREQYEAMAERN [L10F] | 4.55 |
| TPGIDLTRVVAEMREQYEAMAERN [L10V] | 4.8 |
| TPGIDLTRVWAEMREQYEAMAERN [L10W] | 4.09 |
| TPGIDLTRVEAEMREQYEAMAERN [L10E] | 5.2 |
| TPGIDLTRVMAEMREQYEAMAERN [L10M] | 4.48 |
| TPGIDLTRVRAEMREQYEAMAERN [L10R] | 4.12 |
| TPGIDLTRVPAEMREQYEAMAERN [L10P] | 5.31 |
| TPGIDLTRVHAEMREQYEAMAERN [L10H] | 4.95 |
| TPGIDLTRVYAEMREQYEAMAERN [L10Y] | 4.4 |
| TPGIDLTRVGAEMREQYEAMAERN [L10G] | 5.23 |
| TPGIDLTRVNAEMREQYEAMAERN [L10N] | 5.71 |
| TPGIDLTRVCAEMREQYEAMAERN [L10C] | 4.22 |
| TPGIDLTRVQAEMREQYEAMAERN [L10Q] | 5.15 |
| TPGIDLTRVTAEMREQYEAMAERN [L10T] | 5.01 |
| TPGIDLTRVIAEMREQYEAMAERN [L10I] | 3.25 |
| TPGIDLTRVDAEMREQYEAMAERN [L10D] | 5.17 |
| TPGIDLTMVLAEMREQYEAMAERN [R8M] | 4.01 |
| TPGIDLTPVLAEMREQYEAMAERN [R8P] | 3.61 |
| TPGIDLTIVLAEMREQYEAMAERN [R8I] | 3.08 |
| TPGIDLTFVLAEMREQYEAMAERN [R8F] | 3.13 |
| TPGIDLTHVLAEMREQYEAMAERN [R8H] | 4.05 |

| Variant | protein stability index |
| --- | --- |
| TPGIDLTLVLAEMREQYEAMAERN [R8L] | 2.64 |
| TPGIDLTKVLAEMREQYEAMAERN [R8K] | 4.69 |
| TPGIDLTNVLAEMREQYEAMAERN [R8N] | 4.11 |
| TPGIDLTQVLAEMREQYEAMAERN [R8Q] | 4.15 |
| TPGIDLTWVLAEMREQYEAMAERN [R8W] | 3.25 |
| TPGIDLTYVLAEMREQYEAMAERN [R8Y] | 3.39 |
| TPGIDLTRVLAETREQYEAMAERN [M13T] | 4.53 |
| TPGIDLTRVLAEKREQYEAMAERN [M13K] | 4.24 |
| TPGIDLTRVLAEQREQYEAMAERN [M13Q] | 4.1 |
| TPGIDLTRVLAEYREQYEAMAERN [M13Y] | 4.11 |
| TPGIDLTRVLAESREQYEAMAERN [M13S] | 4.7 |
| TPGIDLTRVLAEIREQYEAMAERN [M13I] | 3.71 |
| TPGIDLTRVLAENREQYEAMAERN [M13N] | 5.48 |
| TPGIDLTRVLAERREQYEAMAERN [M13R] | 4.93 |
| TPGIDLTRVLAECREQYEAMAERN [M13C] | 4.23 |
| TPGIDLTRVLAEDREQYEAMAERN [M13D] | 5.36 |
| TPGIDLTRVLAEAREQYEAMAERN [M13A] | 4.67 |
| TPGIDLTRVLAEVREQYEAMAERN [M13V] | 3.3 |
| TPGIDLTRVLAEHREQYEAMAERN [M13H] | 4.74 |
| TPGIDLTRVLAEEREQYEAMAERN [M13E] | 5.33 |
| TPGIDLTRVLAEPREQYEAMAERN [M13P] | 3.3 |
| TPGIDLTRVLAEGREQYEAMAERN [M13G] | 4.72 |
